Data reported in patent US20220153854A1 (Ablynx, published 2022).

Key:
[1] = target: T1, human IL-4 (human, UniProt P05112 25-153); test: SPR (ProteOn XPR36), cytokine immobilised by amine coupling
T1 construct: also called hIL-4
T1 sequence (looked up): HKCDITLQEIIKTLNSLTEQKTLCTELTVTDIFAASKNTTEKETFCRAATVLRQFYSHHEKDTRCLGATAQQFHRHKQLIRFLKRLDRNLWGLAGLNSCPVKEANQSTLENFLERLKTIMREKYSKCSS
Experimental: (§1) Absence of binding to OX40L and IL-13 related human cytokines was assessed via SPR (Proteon XPR36). As IL-13 related cytokine, IL-4 was assessed. As OX40L related targets, human TRAIL, CD30L, CD40L and RANKL were assessed.
(§2) To this end, the cytokines were immobilized on a ProteOn GLC sensor chip at 25 μg/mL for 600 s using amine coupling, with 80 seconds injection of EDC/NHS for activation and a 150-seconds injection of 1 M Ethanolamine HCl for deactivation (ProteOn Amine Coupling Kit. cat. 176-2410). Flow rate during activation and deactivation was set to 30 μl/min, and during ligand injection to 25 μl/min. The pH of the 10 mM acetate immobilization buffer was 6.0 for all cytokines, except for RANKL where the pH was 5.0.
(§3) Next, 1 μM of F027100187 was injected for 2 minutes and allowed to dissociate for 600 s at a flow rate of 45 μL/min. As running buffer PBS (pH7.4)+0.005% Tween 20 was used. As positive controls, 100 nM α-hIL-4, α-hTRAIL, α-hCD30L, α-hCD40L Ab and α-hRANKL VHH (Nanobody®, Nb) were injected. Interaction between F027100187 and the positive controls with the immobilized targets was measured by detection of increases in refractory index which occurs as a result of mass changes on the chip upon binding.

[2] = target: T2, human TRAIL (human, UniProt P50591 114-281, limits assumed); test: as above
T2 construct: also called hTRAIL
T2 sequence (P50591 114-281 limits assumed): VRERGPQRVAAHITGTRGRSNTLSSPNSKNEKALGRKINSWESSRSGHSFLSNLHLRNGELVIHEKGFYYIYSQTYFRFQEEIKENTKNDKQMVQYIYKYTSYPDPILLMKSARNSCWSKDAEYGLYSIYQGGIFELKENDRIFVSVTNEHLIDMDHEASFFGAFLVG
Experimental: as §1, §2, §3

[3] = target: T3, human CD30L (human, UniProt P32971 63-234, limits assumed); test: as above
T3 construct: also called hCD30L
T3 sequence (looked up): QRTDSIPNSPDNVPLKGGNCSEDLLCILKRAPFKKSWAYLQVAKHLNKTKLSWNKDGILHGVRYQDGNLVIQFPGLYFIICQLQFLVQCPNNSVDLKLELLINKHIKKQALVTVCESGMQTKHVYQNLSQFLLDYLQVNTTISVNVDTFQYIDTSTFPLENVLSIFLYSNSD
Experimental: as §1, §2, §3

[4] = target: T4, human CD40L (human, UniProt P29965 113-261, limits assumed); test: as above
T4 construct: also called hCD40L
T4 sequence (looked up): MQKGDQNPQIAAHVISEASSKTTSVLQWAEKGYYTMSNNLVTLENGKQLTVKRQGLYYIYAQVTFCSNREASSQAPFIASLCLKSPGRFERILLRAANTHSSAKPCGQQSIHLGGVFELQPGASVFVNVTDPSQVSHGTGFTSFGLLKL
Experimental: as §1, §2, §3

[5] = target: T5, human RANKL (human, UniProt O14788 140-317, limits assumed); test: as above
T5 construct: also called hRANKL
T5 sequence (looked up): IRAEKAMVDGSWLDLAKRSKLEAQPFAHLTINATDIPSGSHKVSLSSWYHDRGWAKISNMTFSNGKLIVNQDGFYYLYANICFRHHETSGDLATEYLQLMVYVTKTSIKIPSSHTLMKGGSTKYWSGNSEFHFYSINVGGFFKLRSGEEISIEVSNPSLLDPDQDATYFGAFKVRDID
Experimental: as §1, §2, §3

[6] = target: T6, cyno serum albumin (cynomolgus monkey); test: Gyrolab in-solution affinity, 2 h incubation; 95% CI 9.0-12.3 nM
T6 construct: also called cyno SA; cynomolgus monkey serum albumin
T6 sequence (A2V9Z4 25-608): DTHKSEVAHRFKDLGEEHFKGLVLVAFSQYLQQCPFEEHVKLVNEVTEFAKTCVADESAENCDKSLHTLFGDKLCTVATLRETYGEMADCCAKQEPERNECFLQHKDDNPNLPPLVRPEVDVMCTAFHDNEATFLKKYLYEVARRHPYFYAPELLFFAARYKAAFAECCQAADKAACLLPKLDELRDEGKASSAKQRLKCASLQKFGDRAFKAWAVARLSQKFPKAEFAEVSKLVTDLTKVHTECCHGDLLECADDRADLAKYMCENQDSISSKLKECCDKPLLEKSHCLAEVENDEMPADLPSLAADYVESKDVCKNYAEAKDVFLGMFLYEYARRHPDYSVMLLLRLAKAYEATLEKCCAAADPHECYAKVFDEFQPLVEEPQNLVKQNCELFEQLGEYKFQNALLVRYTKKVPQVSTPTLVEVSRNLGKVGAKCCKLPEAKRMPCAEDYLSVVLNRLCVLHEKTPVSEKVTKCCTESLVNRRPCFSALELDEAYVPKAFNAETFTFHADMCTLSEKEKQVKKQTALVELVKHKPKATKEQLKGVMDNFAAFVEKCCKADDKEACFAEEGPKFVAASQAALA
Experimental: Under receptor-controlled measurements a serial dilution of OX40L (ranging from 1.3 μM-0.031 μM), IL-13 (ranging from 0.1 μM-0.25 fM), or serum albumin (ranging from 100 μM-3.2 μM) and a fixed amount of ISVD construct F027100187 (5 nM in case of OX40L, […] in case of IL-13 and 30 nM in case of HSA and cyno SA) were mixed to allow interaction and incubated for either 24 or 48 hours (in case of OX40L and IL-13) or 2 hours (in case of serum albumin) to reach equilibrium.
Biotinylated human OX40L/IL-13/serum albumin was captured in the microstructures of a Gyrolab Bioaffy 1000 CD, which contains columns of beads and was used as a molecular probe to capture free F027100187 from the equilibrated solution. The mixture of OX40L/IL13/serum albumin and F027100187 (containing free OX40UIL-13/serum albumin, free F027100187 and OX40L/IL13/serum albumin—F027100187 complexes) was allowed to flow through the beads, and a small percentage of free F027100187 was captured, which is proportional to the free ISVD construct concentration. A fluorescently labeled anti-ISVD antibody, ABH0086-Alexa647, was then injected to label any captured F027100187 and after rinsing away excess of fluorescent probe, the change in fluorescence was determined. Fitting of the dilution series was done using Gyrolab Analysis software, where KD- and receptor-controlled curves were analyzed to determine the KD value.

B1: ISVD construct F027100187 (other)
chain: DVQLVESGGGVVQPGGSLRLSCAASRSIGRYDRMGWYRHRPGEPRELVATITGGSSINYGDSVKGRFTISIDNSKNTVYLQMNSLRPEDTALYYCNFNKYQISRDTWGQGTLVTVSSGGGGSGGGSEVQLVESGGGVVQPGGSLRLSCAASGRTFSSYRMGWFRQAPGKEREFVAALSGDGYSTYTANSVKGRFTISRDNSKNTVYLQMNSLRPEDTALYYCAAKLQYVSGWSYDYPYWGQGTLVTVSSGGGGSGGGSEVQLVESGGGVVQPGGSLRLSCAASGFTFRSFGMSWVRQAPGKGPEWVSSISGSGSDTLYADSVKGRFTISRDNSKNTLYLQMNSLRPEDTALYYCTIGGSLSRSSQGTLVTVSSGGGGSGGGSEVQLVESGGGVVQPGGSLRLSCAASGFTFNNYAMKWVRQAPGKGLEWVSSITTGGGSTDYADSVKGRFTISRDNSKNTLYLQMNSLRPEDTALYYCANVPFGYYSEHFSGLSFDYRGQGTLVTVSSA
notes: Tetravalent, trispecific single-chain construct of four VHH (ISVD) domains: one against OX40L, two against IL-13, one against serum albumin; also called F0271000187; F27100187
binding result [1]: no binding (tested: 1 µM) | binding result [2]: no binding (tested: 1 µM) | binding result [3]: no binding (tested: 1 µM) | binding result [4]: no binding (tested: 1 µM) | binding result [5]: no binding (tested: 1 µM) | Kd [6]: 10.6 nM
